From patent US20170165373A1

Target: human BCMA (huBCMA), full length, on cells (human) (UniProt Q02223)
Experiment: FACS, H929 cells, negative control

Chain of human BCMA (huBCMA), full length, on cells (human) (Q02223 whole entry N81S): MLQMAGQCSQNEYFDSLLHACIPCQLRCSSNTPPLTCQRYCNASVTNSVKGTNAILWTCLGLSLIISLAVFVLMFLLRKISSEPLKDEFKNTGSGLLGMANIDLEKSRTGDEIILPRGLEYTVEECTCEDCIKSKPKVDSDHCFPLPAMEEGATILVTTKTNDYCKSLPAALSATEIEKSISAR

Substance: hu IgG1 (antibody)
- MFI: 8
